Reference: US20200140551A1

Columns and labels:
[1] = biological target: human ICOS (human) (UniProt Q9Y6W8); experiment: Biacore (SPR), human ICOS; format not described
[2] = biological target: cynomolgus ICOS (cynomolgus); experiment: Biacore (SPR), cyno ICOS; format not described
Sequence of cynomolgus ICOS (cynomolgus) (A0A2K5 entry or part of it limits assumed): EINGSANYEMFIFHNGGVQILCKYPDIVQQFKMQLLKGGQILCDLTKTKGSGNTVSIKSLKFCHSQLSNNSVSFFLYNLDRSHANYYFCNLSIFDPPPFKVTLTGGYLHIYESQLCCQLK

Sequence of human ICOS (human) (Q9Y6W8 21-140 limits assumed): as the sequence (A0A2K5 entry or part of it limits assumed) above, with R81H counted along it

- Kd [1]: 17 nM
- Kd [2]: 9.3 nM
B1: murine anti-human ICOS mAb clone 314.8 (antibody, from another filing, V domains shown)
VH: QVQLQQPGTELMKPGASVKLSCKASGYTFTTYWMHWVKQRPGQGLEWIGEIDPSDSYVNYNQNFKGKATLTVDKSSSTAYIQLSSLTSEDSAVYFCARSPDYYGTSLAWFDYWGQGTLVTVST
VL: DIVMTQAAPSVPVTPGESVSISCRSSKSPLHSNGNIYLYWFLQRPGQSPQLLIYRMSNLASGVPDRFSGSGSGTTFTLKISRVEAEDVGVYYCMQHLEYPYTFGGGTKLEIK
